B1: Reg Iα: Recombinant human Reg Iα protein expressed by fermentation in Pichia pastoris (protein)
chain: QEAQTELPQARISCPEGTNAYRSYCYYFNEDRETWVDADLYCQNMNSGNLVSVLTQAEGAFVASLIKESGTDDFNVWIGLHDPKKNRRWHWSSGSLVSYKSWGIGAPSSVNPGYCVSLTSSTGFQKWKDVPCEDKFSFVCKFKN
B2: Reg III: Recombinant human Reg III (pancreatitis-associated protein) expressed by fermentation in Pichia pastoris (protein)
chain: EEPQRELPSARIRCPKGSKAYGSHCYALFLSPKSWTDADLACQKRPSGNLVSVLSGAEGSFVSSLVKSIGNSYSYVWIGLHDPTQGTEPNGEGWEWSSSDVMNYFAWERNPSTISSPGHCASLSRSTAFLRWKDYNCNVRLPYVCKFTD

Legend:
intestinal stem cells = assay: Survival of intestinal stem cells following 13 Gy radiation; format: in vivo, mouse; conditions: pretreatment, FIGS. 27 and 28
Protocol: Gamma irradiation is a well-defined pro-apoptotic stimulus and is a commonly applied experimental approach to study intestinal epithelial cell death. […] At 6 hours marked apoptosis is seen in the crypt epithelium. By 24 hours, there is a loss of epithelial proliferation. Regenerating crypts, counted at 84 hours, are reflective of a single surviving stem cell.
(§1) Stem cells and their immediate progeny are the only cells in the normal epithelium that are capable of continued proliferation. In this context, epithelial malignancies may reflect a form of disordered stem cell biology. FIGS. 27 and 28 show the effect of exogenous Reg proteins on the survival of intestinal stem cells following 13 Gy radiation. […] We therefore conducted experiments to see if exogenous Reg would promote the survival of colorectal adenocarcinoma cells in response to gamma radiation.

HT-29 cells = assay: Bcl-xl and Bcl-2 expression after recombinant Reg Iα treatment; format: cell-based; conditions: FIG. 29 and 30
Protocol: Additional colorectal cell lines were also examined to determine if this was a generalized effect on gastrointestinal cells. […] To determine if the increases in Bcl-2 mRNA also were associated with changes in Bcl-2 protein expression, Western blotting was performed on cell lysates taken at various times following Reg treatment.

Akt = assay: Activation of the Akt pathway by phosphorylation in cancer cell lines; format: cell-based; conditions: nanomolar concentrations; HCT116, HT29, N87 cells; FIGS. 19 and 20
Text: One kinase responsible for protection against apoptosis in tumor cells may be Akt/protein kinase B. Akt, also referred to as Rac, regulates the balance between survival and apoptosis by several mechanisms. Akt may regulate the expression of anti-apoptotic proteins. Because of the effect of Reg on the regulation of Bcl-2 (and Bcl-xl, discussed later), we examined the effects of recombinant Reg IV and Reg Iα on the activation of the Akt pathway. […] Activated Akt has known pleiotropic effects (beyond effects on Bcl-2 family gene expression), reducing the amount of apoptosis occurring either at baseline or in response to a known proapoptotic stimulus.

[1] = test system: colon cancer cell lines (e.g. HT29, SW480, T84); assay: Upregulation of mRNA of other Reg family members in colon cancer cell lines; format: cell-based; conditions: FIG. 33
Text: One explanation for this finding could be that a single Reg protein can upregulate expression of other members of the Reg family.

[2] = test system: colorectal adenocarcinoma cells; assay: Survival of colorectal adenocarcinoma cells in response to gamma radiation; format: cell-based; conditions: nanomolar concentrations, FIGS. 31 and 32
Text: as §1

HT29 = assay: Caspase activity in HT29 lysates following oxidative stress (hydrogen peroxide); format: cell-based; conditions: nanomolar concentrations; HT29 lysates after hydrogen peroxide; FIG. 21

Molecule	stem cell survival (intestinal stem cells)	expression of Bcl-xl and Bcl-2 (HT-29 cells)	activation by phosphorylation of Akt (Akt)	mRNA coding for other members of the Reg gene family [1]	cell survival from gamma radiation [2]	caspase activity / protection against peroxide-induced apoptosis (HT29)
B1	significantly increased stem cell survival	increased expression of Bcl-xl and Bcl-2	rapid activation by phosphorylation of Akt	upregulation of mRNA coding for other members of the Reg gene family	improved cell survival	reduced caspase activity
B2				upregulation of mRNA coding for other members of the Reg gene family		
